Results published in PMC5059767.

Experiments:
[1] = target: endogenous PKAC (HEK293T) (human (endogenous in HEK293T)) (UniProt P17612)
[2] = target: PKAC-YFP (mouse PKAC-Venus-YFP), in MDCK cells (UniProt P05132); test: FLIM-FRET (Venus-YFP donor fluorescence lifetime) in MDCK cells; details: n≥4 each; mean±s.d.; donor alone (PKAC-YFP) est. 3.0 ns; parent: est. 2.4; read off a plot
mCherry-ARHGAP36 = test: as above; details: n≥4 each; mean±s.d.; donor alone (PKAC-YFP) est. 3.0 ns; parent: est. 2.4; read off a plot

Chain of ARHGAP36-N2 (118–194) (Q6ZRI8 149-225): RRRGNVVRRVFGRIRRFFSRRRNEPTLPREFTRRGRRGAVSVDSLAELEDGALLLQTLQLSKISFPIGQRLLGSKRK

Work on mCherry-ARHGAP36 (natural protein) yielded a reduction in mean FRET emission ratio of the PKA biosensor AKAR4-NES in HEK293T cells stimulated with Forskolin and IBMX [1] of 25.7%.
With mCherry-ARHGAP36 R153D; R154D; V157D the response [2] was 3 ns.
“PKAC-YFP (mouse PKAC-Venus-YFP), in MDCK cells (from UniProt P05132) E127A; E170A; E230A” was tested, and the response (mCherry-ARHGAP36) was 3 ns.
“ARHGAP36-N2 (118–194) (from UniProt Q6ZRI8-2 118-194) (domain or fragment)” was tested, and the reduction in mean FRET emission ratio of the PKA biosensor AKAR4-NES in HEK293T cells stimulated with Forskolin and IBMX [1] was 25.1%.
